Measured values from the supplement of paper PMC10598134.
± gives the standard deviation.

Experiment: collision cross section of modified peptide (TIMS, N2, iRT-aligned); higher = larger / more extended gas-phase ion
Summary of the method: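 Collision cross section was derived from the Mason-Schamp equation. Each value averages 1–3 technical replicates of the most abundant feature per charge state, measured on a timsTOF Pro/HT in dda-PASEF mode (nitrogen, ~2.4 mbar) after a 120-min nanoflow C18 gradient at 60 °C. Synthetic peptide pools (~100 fmol/µL in 2% acetonitrile/0.1% formic acid, iRT standard spiked 1:40) were identified with MaxQuant, and 1/K0 was calibrated with three reference ions and aligned run-wise to the median iRT peptide deviation.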

[1] = charge state: 2, modification: Butyryl
[2] = charge state: 3, modification: Butyryl
[3] = charge state: 2, modification: Trimethyl (K)
[4] = charge state: 3, modification: Trimethyl (K)
[5] = charge state: 2, modification: HexNAc (ST)
[6] = charge state: 3, modification: HexNAc (ST)
[7] = charge state: 2, modification: Acetyl (K)
[8] = charge state: 2, modification: hydroxyisobutyryl
[9] = charge state: 2, modification: Nitro (Y)
[10] = charge state: 3, modification: Nitro (Y)
[11] = charge state: 2, modification: GlyGly (K)
[12] = charge state: 3, modification: GlyGly (K)
[13] = charge state: 2, modification: Glutarylation
[14] = charge state: 3, modification: Acetyl (K)
[15] = charge state: 2, modification: Formyl
[16] = charge state: 2, modification: Hydroxyproline

Question: What does the source list for “DAEAAEATAEGALKAEK [_DAEAAEATAEGALK(Butyryl)AEK_]”?
Answer: collision cross section [1]: 461.9 ± 22 Å²; collision cross section [2]: 544.71 ± 2 Å²

Question: With “DLSTVEALQNLKNLK [_DLSTVEALQNLK(Trimethyl (K))NLK_]” as the sequence, how does the collision cross section [3] read?
Answer: The collision cross section was 478.82 ± 1.1 Å².

Question: What about the collision cross section [4] of the same sequence?
Answer: The collision cross section was 501.71 ± 2.5 Å².

Question: What does the source list for “DHSKPISNPSDNK [_DHS(HexNAc (ST))KPISNPSDNK_]”?
Answer: collision cross section [5]: 406.95 ± 0.13 Å²; collision cross section [6]: 479.5 ± 0.17 Å²

Question: For “FSYTSQHSDYGQR [_FS(HexNAc (ST))YTSQHSDYGQR_]”, which collision cross section [6] is on record?
Answer: Its collision cross section is 502.75 ± 0.96 Å².

Question: Which collision cross section (charge state: 2, modification: Methyl (K)) does the source give for “FVDSKVGEFSGANK [_FVDSK(Methyl (K))VGEFSGANK_]” here?
Answer: The collision cross section was 434.66 Å².

Question: With “SSSAGGQGSYVPLLR [_SSS(HexNAc (ST))AGGQGSYVPLLR_]” as the sequence, how does the collision cross section [5] read?
Answer: Its collision cross section is 427.89 ± 0.57 Å².

Question: With TPNLYIYSKK [_TPNLYIYSK(Succinyl)K_] as the sequence, how does the collision cross section (charge state: 2, modification: Succinyl) read?
Answer: Its collision cross section is 387.96 ± 0.52 Å².

Question: With ITASLCDLKSR [_ITASLCDLK(Acetyl (K))SR_] as the sequence, how does the collision cross section [7] read?
Answer: The collision cross section was 383.24 ± 1.3 Å².

Question: For “TQAYQDQKPGTSGLR [_TQAYQDQK(Trimethyl (K))PGTSGLR_]”, which collision cross section [4] is on record?
Answer: Its collision cross section is 476 ± 1.5 Å².

Question: With “LEKTIDDLEEK [_LEK(hydroxyisobutyryl)TIDDLEEK_]” as the sequence, how does the collision cross section [8] read?
Answer: The collision cross section was 411.13 ± 0.32 Å².

Question: With “IINEPTAAAIAYGLDKK [_IINEPTAAAIAYGLDK(Malonyl)K_]” as the sequence, how does the collision cross section (charge state: 2, modification: Malonyl) read?
Answer: The collision cross section was 458.91 ± 0.99 Å².

Question: For YHEDIFGLTLR [_Y(Nitro (Y))HEDIFGLTLR_], which collision cross section [9] is on record?
Answer: The collision cross section was 391.96 ± 0.8 Å².

Question: And the collision cross section [10]?
Answer: The collision cross section was 465.92 ± 0.23 Å².

Question: Which collision cross section [11] does the source give for VETTVTSLKTK [_VETTVTSLK(GlyGly (K))TK_] here?
Answer: Its collision cross section is 391.21 ± 2 Å².

Question: And the collision cross section [12]?
Answer: Its collision cross section is 459.77 ± 2 Å².

Question: For “DAEAAEATAEGALKAEK [_DAEAAEATAEGALK(Gluratylation)AEK_]”, which collision cross section [13] is on record?
Answer: Its collision cross section is 438.1 ± 0.96 Å².

Question: What about the collision cross section (charge state: 3, modification: Glutarylation) of the same sequence?
Answer: The collision cross section was 545.34 ± 0.13 Å².

Question: What does the source list for “SKHLQEQLNELK [_SK(Trimethyl (K))HLQEQLNELK_]”?
Answer: collision cross section [3]: 417.87 Å²; collision cross section [4]: 506.13 ± 1.6 Å²

Question: With GEVQVSDKER [_GEVQVSDK(Crotonyl)ER_] as the sequence, how does the collision cross section (charge state: 2, modification: Crotonyl) read?
Answer: The collision cross section was 363.4 ± 0.8 Å².

Question: Which collision cross section [8] does the source give for “DESFLGKLGGTLAR [_DESFLGK(hydroxyisobutyryl)LGGTLAR_]” here?
Answer: Its collision cross section is 419.07 ± 0.83 Å².

Question: What about the collision cross section (charge state: 3, modification: hydroxyisobutyryl) of the same sequence?
Answer: The collision cross section was 498.29 ± 2.3 Å².

Question: With “LGPPGNPGPSGSPGPKGQK [_LGPPGNP(Hydroxyproline)GPSGSPGPKGQK_]” as the sequence, how does the collision cross section (charge state: 3, modification: Hydroxyproline) read?
Answer: The collision cross section was 472.87 ± 1.2 Å².

Question: For “VSPASSVDSNIPSSQGYKK [_VSPASSVDSNIPSSQGYK(Acetyl (K))K_]”, which collision cross section [7] is on record?
Answer: Its collision cross section is 458.38 ± 2.6 Å².

Question: And the collision cross section [14]?
Answer: Its collision cross section is 553.13 ± 0.49 Å².

Question: Which results are given for “KYEEIDNAPEER [_K(Acetyl (K))YEEIDNAPEER_]”?
Answer: collision cross section [7]: 408.98 ± 1.6 Å²; collision cross section [14]: 493.17 ± 8.3 Å²

Question: Which collision cross section [13] does the source give for “IPQEKCILQTDVK [_IPQEK(Gluratylation)CILQTDVK_]” here?
Answer: Its collision cross section is 437.23 ± 0.96 Å².

Question: For ALLQAKASGK [_ALLQAK(Formyl)ASGK_], which collision cross section [15] is on record?
Answer: Its collision cross section is 340.27 ± 0.87 Å².

Question: For “DYSSGFGGKYGVQADR [_DYSSGFGGK(Acetyl (K))YGVQADR_]”, which collision cross section [7] is on record?
Answer: The collision cross section was 430.77 ± 2.2 Å².

Question: For “VDVEVPDVSLEGPEGKLK [_VDVEVPDVSLEGPEGK(Formyl)LK_]”, which collision cross section [15] is on record?
Answer: The collision cross section was 460.51 ± 1.4 Å².

Question: For TTEETSKPK [_TTEETSK(GlyGly (K))PK_], which collision cross section [11] is on record?
Answer: Its collision cross section is 355.85 ± 0.24 Å².

Question: What about the collision cross section [12] of the same sequence?
Answer: Its collision cross section is 431.05 ± 2.7 Å².

Question: Which results are given for “VLDSGAPIKIPVGPETLGR [_VLDSGAPIK(Acetyl (K))IPVGPETLGR_]”?
Answer: collision cross section [7]: 463.33 ± 3.4 Å²; collision cross section [14]: 505.97 Å²

Question: For GDAGEPGR [_GDAGEP(Hydroxyproline)GR_], which collision cross section [16] is on record?
Answer: Its collision cross section is 292.85 ± 1.1 Å².

Question: For VHATSTYR [_VHATSTY(Nitro (Y))R_], which collision cross section [9] is on record?
Answer: Its collision cross section is 330 ± 0.55 Å².

Question: What about the collision cross section [10] of the same sequence?
Answer: The collision cross section was 400.02 ± 0.83 Å².

Question: For MFLSFPTTK [_MFLS(HexNAc (ST))FPTTK_], which collision cross section [5] is on record?
Answer: Its collision cross section is 373.63 ± 0.17 Å².

Question: Which collision cross section [1] does the source give for “PASGAGAGAGAGKR [_PASGAGAGAGAGK(Butyryl)R_]” here?
Answer: Its collision cross section is 358.98 ± 1.3 Å².

Question: And the collision cross section [2]?
Answer: Its collision cross section is 461.52 ± 2.9 Å².

Question: For “GEPGLPGHPGK [_GEPGLP(Hydroxyproline)GHPGK_]”, which collision cross section [16] is on record?
Answer: The collision cross section was 337.36 ± 0.3 Å².
